Reference: publication PMC7179120

Tests used:
Assay in all cases: other fluorescence titration; microplate-based binding assay (HI-FI) with Alexa-488-labelled Sod1 and Ccs; 20 mM Tris pH 7.5, 150 mM NaCl, 1 mM TCEP; plates imaged on a Typhoon FLA 9500; quadruplicate; apparent dissociation constants
[1] = target: human Sod1 A4V/C146S, metal-free, disulfide reduced, labelled with Alexa-488 at C57 (human)
[2] = target: human Sod1 G93A/C146S, metal-free, disulfide reduced, labelled with Alexa-488 at C57 (human)
[3] = target: human Sod1 H80R/C146S, metal-free, disulfide reduced, labelled with Alexa-488 at C57 (human)
[4] = target: human Sod1 G85R/C146S, metal-free, disulfide reduced, labelled with Alexa-488 at C57 (human)

## human copper chaperone for Sod1 (Ccs) (natural protein)
[1]
  Kd: 42.1 nM
[2]
  Kd: 33.4 nM
[3]
  Kd: 67.6 nM
[4]
  Kd: 35.5 nM
